The text below walks through data of paper PMC7940618, “Specific inhibition of the Survivin–CRM1 interaction by peptide-modified molecular tweezers” (Nature Communications, 2021).

Test [1] addresses T1, GST-Survivin120-K90/103T–CRM1 interaction (Homo sapiens, UniProt O15392, K103T/K90T).
T1 construct: the only published NMR structure originated from a truncated Survivin (aa 1-120) with improved solubility; made in house; host or cells: Escherichia coli soluBL21
The test can be described thus: Pull-down with GST-Survivin120-K90/103T bait, CRM1 and RanQ69L. It is filed as binding. The protocol:
(§1) Next, we investigated whether tweezer inhibition of the export complex assembly is compromised upon lysine mutations near the NES. Therefore, pull-down experiments were performed with recombinant GST-tagged Survivin120 wildtype and K90/103T as bait proteins, tweezers, recombinant CRM1 and RanQ69L (Fig. 7g). Controls lacking the Survivin baits were included, as well as isolated peptides without tweezer (Fig. 7h). […] However, for the double lysine mutant GST-Survivin120-K90/103T even the tweezer conjugates lost most of their inhibitory power toward the essential Survivin–CRM1 interaction.
(§2) All pull-down assays were performed at room temperature in pull-down buffer (PBS, pH 7.4, 1 mM DTT, 0.02 Triton X-100). GST fusion proteins were immobilized on 50 μL GSH-coated Sepharose 4B beads from GE Healthcare. The beads were prior equilibrated and blocked with 500 μL pull-down blocking buffer (PBS, pH 7.4, 1 (w/v) BSA, 1 mM DTT, 0.02 (v/v) Triton X-100) for 1 h to prevent unspecific binding.
(§3) For analysis of the effective inhibitory tweezer concentration, 200 μg 293T lysate with overexpressed Survivin142-HA was preincubated without ligand or with different concentrations (10 nM to 200 μM) of unmodified tweezer TW, TW-ELTL, TW-ELTLGEFL, or TW-LFEEGLLT for 1 h and then mixed with 35 μg GST-CRM1, 55 μg RanQ69L, and 2 mM dGTP. GSH-beads were incubated with this protein mixture for 2 h under rotation. For analysis of tweezer specificity, 40 μg GST-Survivin120 or GST-Survivin120-K90/103T point mutant was pre-bound to equilibrated GSH-beads in 500 μL pull-down buffer, containing additionally either no ligand or 50 μM unmodified tweezer TW, TW-ELTL, TW-ELTLGEFL, or peptides ELTL and ELTLGEFL, for 1 h under rotation. After washing and blocking, GSH-beads were incubated with a protein mixture consisting of 2 mM dGTP, 50 μg CRM1, and 50 μg RanQ69L for 2 h under rotation.
(§4) Samples of input and beads taken during pull-down experiments were ran on 12.5 SDS gels and transferred onto 0.2 µM PVDF membranes (Amersham Hybond P 0.2) using a PerfectBlue™ tank electro blotter (Peqlab) at 350 mA for 150 min. Membranes were blocked for 1 h using 5% milk powder in TBS buffer containing 0.1% Tween-20. Next, membranes were incubated in primary antibodies against HA (anti-HA, mouse monoclonal, BioLegend, Covance MMS-101R, 1:1,000), GST (anti-GST, mouse monoclonal, Santa Cruz Biotechnology Inc., sc-57753, 1:1000) or CRM1 (anti-CRM1, rabbit polyclonal, Novus Biologicals Ltd., NB100-79802, 1:10,000) overnight at 4 °C. Secondary horseradish peroxidase (HRP)-conjugated antibody (anti-mouse IgG-HRP, sheep, GE Healthcare, NXA931 or anti-rabbit IgG-HRP, donkey, GE Healthcare, NA934) was then added (1:10,000) for 1 h at room temperature. Chemiluminescence was detected and imaged using the Pierce ECL Plus Western Blotting Substrate kit (Thermo Fisher Scientific) and Chemidoc system (Bio-Rad) or film processor Cawomat 2000 IR (CAWO). Western blots were analyzed by densitometric analysis with ImageJ version 1.52p (U.S. National Institutes of Health), measuring the mean gray intensity of protein bands. Uncropped and unprocessed scans of western blots are deposited in the Source Data file.

Test [2] concerns the target T2, GST-Survivin120–CRM1 interaction (Homo sapiens, UniProt O15392).
T2 construct: the only published NMR structure originated from a truncated Survivin (aa 1-120) with improved solubility; made in house; host or cells: Escherichia coli soluBL21
The test can be described thus: Pull-down with GST-Survivin120 wildtype bait, CRM1 and RanQ69L. The test is classed as binding. The protocol:
as §1, §2, §3, §4

Another test deals with TW-ELTLGEFL-FAM (human). The test can be described thus: fluorescence polarisation; fluorescence anisotropy; 200 nM FAM-labeled tweezer titrated with Survivin120 (to 180 µM) or K90/103T (to 350 µM); PBS pH 7.4, 25 °C; single-site model.
A further test has as its target TW-ELTL-FAM (human). The description is as above.
For test [3], the target named is TW-ELTLGEFL (asymmetrical molecular tweezer linked to the elongated peptide ELTLGEFL) (human). The test can be described thus: ITC; tweezer conjugate (100 µM) in the cell, Survivin120 (1.2 mM WT or 2.5 mM K90/103T) in the syringe; PBS pH 7.4, 25 °C; one set of sites model. (Isothermal titration calorimetry measures the heat released or taken up as one component is titrated into another.)

Test [4] deals with TW-ELTL (asymmetrical molecular tweezer linked to the short peptide ELTL) (human). The description is as above.
Where [5] appears, read: CRM1 band, samples 22-28 (K90/103T).

T2 sequence (O15392 1-120): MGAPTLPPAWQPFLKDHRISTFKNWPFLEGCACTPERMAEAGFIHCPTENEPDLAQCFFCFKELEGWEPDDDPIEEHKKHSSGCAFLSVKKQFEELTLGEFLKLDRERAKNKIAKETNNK
T1 sequence (O15392 1-120 K90T/K103T): as the sequence (O15392 1-120) above, with K90T, K103T counted along it

For “ELTLGEFL peptide: isolated peptide ELTLGEFL without tweezer, pull-down control”, the “CRM1: Peak area determined with ImageJ” value is reported as 38827.8 in test [1] (setting [5]) and 27360.9 in test [2] (CRM1 band, samples 15-21 (WT)). The “CRM1 intensity_normalised on GST-Surv intensity (samples 1-14)” value in test [1] (setting [5]) is reported as 0.485; in test [2] (CRM1 band, samples 15-21 (WT)), 0.3991. Besides, the “CRM1: Control w/o GST-Survivin subtracted (sample 16 or 23)” value in test [1] (CRM1 band, samples 22-28 (K90/103T), sample 23 subtracted) is 34118.6; in test [2] (CRM1 band, samples 15-21 (WT), sample 16 subtracted), 22503.2. In addition, the “GST-Surv: Peak area determined with ImageJ” value is recorded as 72953.9 in test [1] (GST-Surv bait band, samples 8-14 (K90/103T according to the summary in r39-r41)) and 57214.6 in test [2] (GST-Surv bait band, samples 1-7 (WT according to the summary in r39-r41)). Further, the “GST-Surv: Control w/o GST-Survivin subtracted (sample 2 or 9)” value in test [1] (GST-Surv bait band, samples 8-14 (K90/103T), sample 9 subtracted) is given as 70354.7; in test [2] (GST-Surv bait band, samples 1-7 (WT), sample 2 subtracted), 56379.3. In addition, the “Normalised CRM1 intensity, summary of replicates I and II” value in test [1] (K90/103T, w/o tweezer = 100, replicates I and II) is listed as 76.5436%; in test [2] (WT, w/o tweezer = 100, replicates I and II) it was 112.936%. Moreover, the “CRM1 intensity_normalised on GST-Surv intensity (samples 1-14) and CRM1 intensity w/o incubation (sample 15 or 22)” value in test [1] (samples 22-28 (K90/103T), fraction of sample 22 (w/o tweezer)) was 0.7654; in test [1] (samples 22-28 (K90/103T), w/o tweezer = 100), 76.5436%; in test [2] (samples 15-21 (WT), fraction of sample 15 (w/o Tweezer)), 1.129; in test [2] (samples 15-21 (WT), w/o Tweezer = 100), 112.936%.

Broadly, the Kd is the constant that tells how readily two partners part at equilibrium. For “Survivin120 K90/103T (from UniProt O15392 1-120) (domain or fragment)”, the Kd with TW-ELTLGEFL-FAM (human) was 92 µM; in the test with TW-ELTL-FAM (human) it was 240 µM; in test [3], 36 µM; in test [4] it was 50 µM. In addition, the stoichiometry N (ligand/protein) in test [3] and in test [4] was 1 each time.
